Assay results as given in publication doi:10.64898/2025.12.19.695307 (bioRxiv, 2025).
Residue numbers refer to the chain shown, from its start.

B1: C092 (antibody, V domains shown)
VH: QVQLVQSGAEVKKPGSSVKVSCKASGGSFTNHFISWVRQAPGQGLEWMGRIIPILGTANYAQNFQGRVMMTADKSTSTAYMELSSLRSEDTAVYYCARDSGYSGYGSTYYMDVWGKGTTVTVSS
VL: QSVLTQPPSVSGAPGQRVTISCTGSNSNIGAGYDVHWYQQLPGAAPKLLIYGNNNRPSGVPDRFSGSKSDTSASLAITGLQVEDEADYYCQSYDSSLSDSVFGSGTKVTVL
B2: BD56-597 (antibody, V domains shown)
VH: QVQLVQSGAEVKKPGSSVKVSCKASGGTFSTYPISWVRQAPGQGVEWMGAIIPILGTTDYAQIFQGRVTITADKSTSTAYMELSSLRPEDTAVYYCARERGYSGYGAAYYFDSWGQGTLVTVSS
VL: B1 VL with N26D, A44T, G52V, N54I, D70A, V82A, D99G, S100V, S104G, V108L
B3: R1-32-AAM (R1-32-artificial-affinity-matured) (antibody, V domains shown)
VH: EVQLVESGAEVKKPGSSVKVSCKASGGTFSSYFISWVRQAPGQGLEWMGGIIPILGIADYAEKFQGRVTITADKSTSTAYMELSSLRSEDTAVYYCARENGYSGYGAAYNFDLWGRGTLVTVSS
VL: B1 VL with N26D, A44T, N54S, V82A, S104G, V108L
B4: R1-32 (antibody, V domains shown)
VH: B3 VH with F33A, D59N, E62Q, Y109A
VL: B1 VL with N26S, A44T, N54S, D70G, V82A, D99G, S104G, V108L
B5: C807 (antibody, V domains shown)
VH: QVQLVQSGAEAKKPGSSVKVSCKASGGTFKSYIINWVRQAPGQGLEWMGEIIPIFGTANYAQKFQGRVTSTADESTSTAYMELSSLKSEDTAVYYCARGRGYSGYGASYYFDYWGQGTLVTVSS
VL: B1 VL with A44T, G52A, N54S, D70G, V82A, S96G, D99G, S104G, V108L
B6: BD56-104-R1-32 HCDR3 (antibody, V domains shown)
VH: QVQLVQSGAEVKTPGSSVKVSCKASGGTFGSHSITWVRQAPGQGLEWMGRVIPILGIPDFAESFQGRVAITADRSTSTAHMELSRLRSEDTAVYYCARENGYSGYGAAANFDLWGQGTLVTVSS
VL: QSVLTQPPSVSGAPGQRVTISCTGSNSNIGAGYDVHWYRQLPGTAPKLLIYVNNNRPSGVPDRFSGSRSGASASLAITGLQAEDEAEYYCQSYDSSLSGSIFGGGTKLTVL
B7: BD56-104 (antibody, V domains shown)
VH: B6 VH with E99D, N100V, Y105S, A107S, A108S, A109N, N110Y, L113S
VL: B6 VL
B8: ZL525 (antibody, V domains shown)
V domain 1: QVQLVQSGAEVKKPGSSMKVSCQASGGTFSSHPISWIRQAPGQGLEWMGRIIPIAGMTDYGQKFQGRITITADTSTSTSYVELRGLRSQDTAFYYCAKDVGYSDYGSAYYFHTWGQGTLITVSS
V domain 2: QSVLTQPPSVSGAPGQRVTISCTGSNSNIGAGYDVHWYQQLPGTAPKLLIYRNNKRPSGVPDRFSGSKSDTSASLAITGLQAEDEAHYYCQSFDSSLGGSLFGGGTKLAVL

What follows are binders tested against SARS-CoV-2 wild-type RBD (SARS-CoV-2, UniProt P0DTC2) (assay: BLI).

| Binder | binding result |
| --- | --- |
| B1 | binds |
| B2 | binds |
| B3 | binds |
| B4 | binds |
| B5 | binds |
| B6 | binds |
| B7 | binds |
| B8 | binds |

These binders were tested against Bat-RaTG13 RBD (Bat coronavirus RaTG13, UniProt A0ABF7PLN6) (assay: BLI).

| Binder | binding result |
| --- | --- |
| B1 | binds |
| B2 | binds |
| B4 | binds |
| B5 | binds |
| B7 | binds |
| B8 | binds |

The binders below were run against Bat-RsSHC014 RBD (Bat SARS-like coronavirus RsSHC014, UniProt U5WLK5) (assay: BLI).

| Binder | binding result |
| --- | --- |
| B1 | binds |
| B2 | binds |
| B4 | binds |
| B5 | binds |
| B7 | binds |
| B8 | binds |

These binders were tested against Bat-WIV1 RBD (Bat SARS-like coronavirus WIV1, UniProt U5WI05) (assay: BLI).

| Binder | binding result |
| --- | --- |
| B1 | binds |
| B2 | binds |
| B5 | binds |
| B7 | no binding (tested: 200 nM RBD) |
| B8 | binds |

The binders below were run against SARS-CoV-1 RBD (SARS-CoV-1, strain not named, UniProt P59594) (assay: BLI).

| Binder | binding result |
| --- | --- |
| B8 | binds |

Each binder was assayed against GX2013 RBD (SARSr-CoV BtRs-BetaCoV/GX2013) (assay: BLI).

| Binder | binding result |
| --- | --- |
| B1 | binds |
| B2 | binds |
| B5 | binds |
| B7 | binds |
| B8 | binds |

What follows are binders tested against HeB2013 RBD (SARSr-CoV BtRf-BetaCoV/HeB2013) (assay: BLI).

| Binder | binding result |
| --- | --- |
| B1 | binds |
| B2 | binds |
| B5 | binds |
| B7 | binds |
| B8 | binds |
